{
  "source": "patent US20110301073",
  "key": {"[1]": {"system": "TALE test backbone, repeat 5 RVD RA (synthetic (Xanthomonas TALE))", "settings": "ELISA"}, "[2]": {"system": "TALE test backbone, repeat 5 RVD NG (Xanthomonas sp. (engineered))", "settings": "RVD NG"}, "[3]": {"system": "TALE test backbone, repeat 5 RVD AD (synthetic (Xanthomonas TALE))", "settings": "ELISA"}, "[4]": {"system": "TALE test backbone, repeat 5 RVD HI (synthetic (Xanthomonas TALE))", "settings": "ELISA"}, "[5]": {"system": "TALE test backbone, repeat 5 RVD NI (Xanthomonas sp. (engineered))", "settings": "RVD NI"}, "[6]": {"system": "TALE test backbone, repeat 5 RVD RI (synthetic (Xanthomonas TALE))", "settings": "ELISA"}, "[7]": {"system": "TALE test backbone, repeat 5 RVD SN (synthetic (Xanthomonas TALE))", "settings": "ELISA"}, "[8]": {"system": "TALE test backbone, repeat 5 RVD HN (synthetic (Xanthomonas TALE))", "settings": "ELISA"}, "[9]": {"system": "TALE test backbone, repeat 5 RVD HA (synthetic (Xanthomonas TALE))", "settings": "ELISA"}, "[10]": {"system": "TALE test backbone, repeat 5 RVD RG (synthetic (Xanthomonas TALE))", "settings": "ELISA"}, "[11]": {"system": "TALE test backbone, repeat 5 RVD HG (synthetic (Xanthomonas TALE))", "settings": "ELISA"}, "[12]": {"system": "TALE test backbone, repeat 5 RVD QG (synthetic (Xanthomonas TALE))", "settings": "ELISA"}, "[13]": {"system": "TALE test backbone, repeat 5 RVD TP (synthetic (Xanthomonas TALE))", "settings": "ELISA"}, "[14]": {"system": "TALE test backbone, repeat 5 RVD ND (Xanthomonas sp. (engineered))", "settings": "RVD ND"}, "[15]": {"system": "TALE test backbone, repeat 5 RVD NS (synthetic (Xanthomonas TALE))", "settings": "ELISA"}, "[16]": {"system": "TALE test backbone, repeat 5 RVD VG (synthetic (Xanthomonas TALE))", "settings": "ELISA"}, "[17]": {"system": "TALE test backbone, repeat 5 RVD KT (synthetic (Xanthomonas TALE))", "settings": "ELISA"}, "[18]": {"system": "TALE test backbone, repeat 5 RVD TA (synthetic (Xanthomonas TALE))", "settings": "ELISA"}, "[19]": {"system": "TALE test backbone, repeat 5 RVD SG (synthetic (Xanthomonas TALE))", "settings": "ELISA"}, "[20]": {"system": "TALE test backbone, repeat 5 RVD AN (synthetic (Xanthomonas TALE))", "settings": "ELISA"}, "[21]": {"system": "TALE test backbone, repeat 5 RVD KS (synthetic (Xanthomonas TALE))", "settings": "ELISA"}, "[22]": {"system": "TALE test backbone, repeat 5 RVD HD, standard framework (SEQ 333) (Xanthomonas sp. (engineered))", "settings": "reference"}, "[23]": {"system": "TALE repeat framework V7A (SEQ 403) repeat 5: V7A (Xanthomonas sp. (engineered))", "settings": "average of 3 experiments"}, "[24]": {"system": "TALE repeat framework Q23W (SEQ 416) repeat 5: Q23W (Xanthomonas sp. (engineered))", "settings": "average of 3 experiments"}, "[25]": {"system": "TALE repeat framework L26A (SEQ 420) repeat 5: L26A (Xanthomonas sp. (engineered))", "settings": "average of 3 experiments"}, "[26]": {"system": "TALE repeat framework I9V (SEQ 407) repeat 5: I9V (Xanthomonas sp. (engineered))", "settings": "average of 3 experiments"}, "[27]": {"system": "TALE repeat framework A10L (SEQ 408) repeat 5: A10L (Xanthomonas sp. (engineered))", "settings": "average of 3 experiments"}, "[28]": {"system": "TALE repeat framework Q23A (SEQ 413) repeat 5: Q23A (Xanthomonas sp. (engineered))", "settings": "average of 3 experiments"}, "[29]": {"system": "TALE repeat framework E20A (SEQ 410) repeat 5: E20A (Xanthomonas sp. (engineered))", "settings": "average of 3 experiments"}, "[30]": {"system": "TALE repeat framework V6A (SEQ 76) repeat 5: V6A (Xanthomonas sp. (engineered))", "settings": "average of 3 experiments"}, "[31]": {"system": "TALE repeat framework T21A/Q23R/R24A (SEQ 423) repeat 5: T21A,Q23R,R24A (Xanthomonas sp. (engineered))", "settings": "average of 3 experiments"}, "[32]": {"system": "TALE repeat framework T2S/P3T/D4A (SEQ 424) repeat 5: T2S,P3T,D4A (Xanthomonas sp. (engineered))", "settings": "average of 3 experiments"}, "[33]": {"system": "TALE repeat framework L25Q (SEQ 419) repeat 5: L25Q (Xanthomonas sp. (engineered))", "settings": "average of 3 experiments"}, "[34]": {"system": "TALE repeat framework Q23R (SEQ 414) repeat 5: Q23R (Xanthomonas sp. (engineered))", "settings": "average of 3 experiments"}, "[35]": {"system": "TALE repeat framework S11A (SEQ 409) repeat 5: S11A (Xanthomonas sp. (engineered))", "settings": "average of 3 experiments"}, "[36]": {"system": "TALE repeat framework A8T (SEQ 405) repeat 5: A8T (Xanthomonas sp. (engineered))", "settings": "average of 3 experiments"}, "[37]": {"system": "TALE repeat framework L25A (SEQ 418) repeat 5: L25A (Xanthomonas sp. (engineered))", "settings": "average of 3 experiments"}, "[38]": {"system": "TALE repeat framework T21A (SEQ 411) repeat 5: T21A (Xanthomonas sp. (engineered))", "settings": "average of 3 experiments"}, "[39]": {"system": "TALE repeat framework R24A (SEQ 417) repeat 5: R24A (Xanthomonas sp. (engineered))", "settings": "average of 3 experiments"}, "[40]": {"system": "TALE repeat framework A8L (SEQ 404) repeat 5: A8L (Xanthomonas sp. (engineered))", "settings": "average of 3 experiments"}, "[41]": {"system": "TALE repeat framework V22A (SEQ 412) repeat 5: V22A (Xanthomonas sp. (engineered))", "settings": "average of 3 experiments"}, "[42]": {"system": "TALE repeat framework Q23K (SEQ 415) repeat 5: Q23K (Xanthomonas sp. (engineered))", "settings": "average of 3 experiments"}, "[43]": {"system": "TALE repeat framework I9A (SEQ 406) repeat 5: I9A (Xanthomonas sp. (engineered))", "settings": "average of 3 experiments"}, "[44]": {"system": "TALE repeat framework P27A (SEQ 421) repeat 5: P27A (Xanthomonas sp. (engineered))", "settings": "average of 3 experiments"}, "[45]": {"system": "TALE repeat framework Q5A (SEQ 75) repeat 5: Q5A (Xanthomonas sp. (engineered))", "settings": "average of 3 experiments"}, "[46]": {"system": "TALE repeat framework T2S/P3T/D4A/T21A/Q23R/R24A (SEQ 425) repeat 5: T2S,P3T,D4A,T21A,Q23R,R24A (Xanthomonas sp. (engineered))", "settings": "average of 3 experiments"}, "[47]": {"system": "TALE repeat framework P27L (SEQ 422) repeat 5: P27L (Xanthomonas sp. (engineered))", "settings": "average of 3 experiments"}},
  "data": [
    {"sequence": "TTGACCATCCT (double strand) [CCA target]", "values": [
      {"measurement": "binding signal (normalized ELISA)", "setting": "[1]", "value": 0.89},
      {"measurement": "binding signal (normalized ELISA)", "setting": "[2]", "value": 0.14},
      {"measurement": "binding signal (normalized ELISA)", "setting": "[3]", "value": 0.4},
      {"measurement": "binding signal (normalized ELISA)", "setting": "[4]", "value": 0.1},
      {"measurement": "binding signal (normalized ELISA)", "setting": "[5]", "value": 0.04},
      {"measurement": "binding signal (normalized ELISA)", "setting": "[6]", "value": 0.05},
      {"measurement": "binding signal (normalized ELISA)", "setting": "[7]", "value": 0.01},
      {"measurement": "binding signal (normalized ELISA)", "setting": "[8]", "value": 0},
      {"measurement": "binding signal (normalized ELISA)", "setting": "[9]", "value": 0.53},
      {"measurement": "binding signal (normalized ELISA)", "setting": "[10]", "value": 0.26},
      {"measurement": "binding signal (normalized ELISA)", "setting": "[11]", "value": 0.11},
      {"measurement": "binding signal (normalized ELISA)", "setting": "[12]", "value": 0.11},
      {"measurement": "binding signal (normalized ELISA)", "setting": "[13]", "value": 0.2},
      {"measurement": "binding signal (normalized ELISA)", "setting": "[14]", "value": 0.73},
      {"measurement": "binding signal (normalized ELISA)", "setting": "[15]", "value": 0.26},
      {"measurement": "binding signal (normalized ELISA)", "setting": "[16]", "value": 0.02},
      {"measurement": "binding signal (normalized ELISA)", "setting": "[17]", "value": 0.81},
      {"measurement": "binding signal (normalized ELISA)", "setting": "[18]", "value": 0.2},
      {"measurement": "binding signal (normalized ELISA)", "setting": "[19]", "value": 0.23},
      {"measurement": "binding signal (normalized ELISA)", "setting": "[20]", "value": 0},
      {"measurement": "binding signal (normalized ELISA)", "setting": "[21]", "value": 0.78},
      {"measurement": "binding signal (normalized ELISA)", "setting": "[22]", "value": 1},
      {"measurement": "binding signal (normalized ELISA)", "setting": "[23]", "value": 0.26},
      {"measurement": "binding signal (normalized ELISA)", "setting": "[24]", "value": 0.88},
      {"measurement": "binding signal (normalized ELISA)", "setting": "[25]", "value": 1},
      {"measurement": "binding signal (normalized ELISA)", "setting": "[26]", "value": 0.76},
      {"measurement": "binding signal (normalized ELISA)", "setting": "[27]", "value": 0.25},
      {"measurement": "binding signal (normalized ELISA)", "setting": "[28]", "value": 0.91},
      {"measurement": "binding signal (normalized ELISA)", "setting": "[29]", "value": 0.82},
      {"measurement": "binding signal (normalized ELISA)", "setting": "[30]", "value": 0.89},
      {"measurement": "binding signal (normalized ELISA)", "setting": "[31]", "value": 1.42},
      {"measurement": "binding signal (normalized ELISA)", "setting": "[32]", "value": 0},
      {"measurement": "binding signal (normalized ELISA)", "setting": "[33]", "value": 0.9},
      {"measurement": "binding signal (normalized ELISA)", "setting": "[34]", "value": 0.97},
      {"measurement": "binding signal (normalized ELISA)", "setting": "[35]", "value": 0.9},
      {"measurement": "binding signal (normalized ELISA)", "setting": "[36]", "value": 0.82},
      {"measurement": "binding signal (normalized ELISA)", "setting": "[37]", "value": 1.09},
      {"measurement": "binding signal (normalized ELISA)", "setting": "[38]", "value": 1.05},
      {"measurement": "binding signal (normalized ELISA)", "setting": "[39]", "value": 0.92},
      {"measurement": "binding signal (normalized ELISA)", "setting": "[40]", "value": 0.73},
      {"measurement": "binding signal (normalized ELISA)", "setting": "[41]", "value": 0.7},
      {"measurement": "binding signal (normalized ELISA)", "setting": "[42]", "value": 0.92},
      {"measurement": "binding signal (normalized ELISA)", "setting": "[43]", "value": 0.62},
      {"measurement": "binding signal (normalized ELISA)", "setting": "[44]", "value": 1.21},
      {"measurement": "binding signal (normalized ELISA)", "setting": "[45]", "value": 1.03},
      {"measurement": "binding signal (normalized ELISA)", "setting": "[46]", "value": 0},
      {"measurement": "binding signal (normalized ELISA)", "setting": "[47]", "value": 1.29}
    ]}
  ]
}
